Three substances from article doi:10.1101/2021.06.01.446590 can be followed below.

In assay [1] the target is human parkin, full-length (human) (UniProt O60260). The assay can be described thus: ITC.
A further assay concerns the target parkin/pUb (UniProt O60260). The assay can be described thus: ITC.

Sequence of human parkin, full-length (human) (O60260 whole entry): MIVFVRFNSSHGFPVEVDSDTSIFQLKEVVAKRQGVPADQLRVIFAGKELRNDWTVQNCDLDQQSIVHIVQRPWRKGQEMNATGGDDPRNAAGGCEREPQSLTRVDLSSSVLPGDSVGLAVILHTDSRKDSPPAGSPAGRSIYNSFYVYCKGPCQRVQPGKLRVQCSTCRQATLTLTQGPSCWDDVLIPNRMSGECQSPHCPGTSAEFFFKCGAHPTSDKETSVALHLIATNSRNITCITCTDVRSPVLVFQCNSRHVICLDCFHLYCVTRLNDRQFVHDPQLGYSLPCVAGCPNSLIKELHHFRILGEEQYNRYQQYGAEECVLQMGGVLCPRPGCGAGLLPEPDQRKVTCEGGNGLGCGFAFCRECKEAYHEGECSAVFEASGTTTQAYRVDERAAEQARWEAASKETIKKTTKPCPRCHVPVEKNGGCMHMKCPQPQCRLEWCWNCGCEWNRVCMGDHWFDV
Sequence of parkin/pUb (O60260 whole entry, chain 1 of 2): as the sequence (O60260 whole entry) above
Sequence of parkin/pUb (P0CG63 1-76, chain 2 of 2, further chain): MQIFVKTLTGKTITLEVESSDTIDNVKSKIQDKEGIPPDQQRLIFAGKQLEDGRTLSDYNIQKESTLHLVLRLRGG
Sequence of UbcH7~Ub (P68036 whole entry): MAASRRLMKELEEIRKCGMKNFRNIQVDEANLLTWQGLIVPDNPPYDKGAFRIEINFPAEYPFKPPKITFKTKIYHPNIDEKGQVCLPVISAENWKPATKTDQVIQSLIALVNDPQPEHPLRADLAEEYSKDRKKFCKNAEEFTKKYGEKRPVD
Sequence of UbcH7~Ub (P0CG63 1-76): as the sequence (P0CG63 1-76, chain 2 of 2, further chain) above

In the case of “CISD1-pUb (CISD1-Ub phosphorylated at S65 of Ub by PINK1) (from UniProt Q9NZ45 32-108; P0CG63 1-76)”, the Kd in assay [1] was determined as 428 nM.

In turn, “UbcH7~Ub (from UniProt P68036 1-154; P0CG63 1-76) (complex)” yielded a Kd with parkin/pUb of 40 µM.

“mG2^T-pUb (mG2^T-Ub phosphorylated at S65 of Ub by PINK1) (from UniProt Q8IXI2 402-582; P0CG63 1-76)” gave a Kd in assay [1] of 894 nM.
